Paper PMC3145792
Where “and” joins values, the source holds several entries; their conditions need not be identical. Equal values may be shown once.

Biological target: SECRET domain (smallpox virus-encoded chemokine receptor domain) of the vTNFR CrmD encoded by ectrom (ectromelia virus)
Assay: SPR

chemokine domain of human CX3CL1 (residues 1-76), mutant F49A (from UniProt P78423 25-100) (domain or fragment)
Kd: 3.75 µM and 4.64 µM and 4.2 µM

chemokine domain of human CX3CL1 (residues 1-76), mutant I19A (from UniProt P78423 25-100) (domain or fragment)
Kd: 1.28 µM and 0.641 µM and 0.96 µM | koff: 0.00689 s⁻¹ and 0.00578 s⁻¹ | kon: 5380 M⁻¹ s⁻¹ and 9020 M⁻¹ s⁻¹

chemokine domain of human CX3CL1 (residues 1-76), mutant K18A (from UniProt P78423 25-100) (domain or fragment)
Kd: 10.9 µM and 11.5 µM and 10.3 µM | koff: 0.0103 s⁻¹ and 0.00518 s⁻¹ | kon: 1000 M⁻¹ s⁻¹ and 450 M⁻¹ s⁻¹

chemokine domain of human CX3CL1 (residues 1-76), mutant L23A (from UniProt P78423 25-100) (domain or fragment)
Kd: 3.36 µM and 5.62 µM and 4.49 µM

chemokine domain of human CX3CL1 (residues 1-76), mutant R44A (from UniProt P78423 25-100) (domain or fragment)
Kd: 15.7 µM and 16.6 µM and 16.1 µM

chemokine domain of human CX3CL1 (residues 1-76), mutant R47A (from UniProt P78423 25-100) (domain or fragment)
Kd: 34.5 µM and 38.4 µM and 36.5 µM
